Test [1] addresses T1, Ryk-Fc fusion protein (human).
T1 chain: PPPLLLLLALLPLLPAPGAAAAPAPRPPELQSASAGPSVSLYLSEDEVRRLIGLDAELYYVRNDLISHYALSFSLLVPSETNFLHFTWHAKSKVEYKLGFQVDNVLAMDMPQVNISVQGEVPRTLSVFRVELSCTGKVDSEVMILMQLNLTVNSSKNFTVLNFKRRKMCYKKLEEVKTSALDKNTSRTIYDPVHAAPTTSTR
Description: SPR, BIACORE 2000, 25 C; scFv 1B4 amine coupled to CM5 chip, Ryk-Fc 30 to 242 nM injected; KD = koff/kon.

The target in test [2] is T1, Ryk-Fc fusion protein. Kind of test: SPR, BIACORE 2000, 25 C; scFv 1B4 amine coupled to CM5 chip, Ryk-Fc 30 to 242 nM injected; global fit A + B = AB.

B1: anti-Ryk scFv 1B4 antibody (scFv, V domains shown)
VH: EVQLVQSGAEVKKPGSSVKVSCKASGGTFSSYAISWVRQAPGQGLEWMGGIIPIFGTANYAQKFQGRVTITADESTSTAYMELSSLRSEDTAVYYCARSYYDWFDYWGQGTLVTVSS
VL: IVLTQPPSVSGAPGQRVTISCSGSSSNIGSNYVSWYQQLPGTAPKLLIYDNNQRPSGVPDRFSGSKSGTSASLAITGLQSEDEADYYCQSWDSIAQIVFGGGTKLTVL
B1: in the test with Ryk-Fc fusion protein [1], the Kd came out at 13.3 nM. In addition, in the test with Ryk-Fc fusion protein [2], the koff amounted to 0.00067 s⁻¹ and the kon was found to be 50000 M⁻¹ s⁻¹.

Values taken from patent WO2001085789A2 (dated 2001).
